# Results from patent US20220144895A1, “DE NOVO DESIGN OF TUNABLE PH-DRIVEN CONFORMATIONAL SWITCHES” (University of Washington, priority 2019, published 2022).
# Entries after “also recorded” stand apart in the source; their conditions may differ.
# T1: pRO-4 Chain B (heterodimer pRO-4), hexahistidine tag cleaved
# T1 construct: The tag was removed for all pH experiments
# T1 chain: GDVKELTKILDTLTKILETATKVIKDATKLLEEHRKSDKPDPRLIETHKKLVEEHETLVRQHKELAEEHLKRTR
# Assays:
# U2-OS cells [1] = details: Bafilomycin A 1 μM, Chloroquine 50 μM as controls; cited from earlier work
# [2] = Native mass spectrometry of pH-induced changes in oligomeric state; format: physicochemical; details: native MS
# Method: Samples were buffer exchanged twice into 200 mM ammonium acetate (NH4Ac; MilliporeSigma) using Micro Bio-Spin P-6 columns (Bio-Rad). Protein concentrations were determined by UV absorbance using a Nanodrop 2000c spectrophotometer (Thermo Fisher Scientific) and diluted to make up a 10-fold stock solution (50 μM and 16.7 μM monomer and trimer concentration, respectively). 1 μL of this solution was mixed with 9 μL 200 mM NH4Ac/50 mM triethylammonium acetate (TEAA; MilliporeSigma), adjusted with acetic acid (Fisher Scientific) to obtain the desired final pH and incubated on ice for 30 min. […] 5 μL samples were filled into an in-house pulled glass capillary and ionized by nESI at a monomer or a trimer concentration of 5 μM or 1.67 μM respectively. All pH titration data were acquired on an in-house modified SYNAPT® G2 HDMS (Waters Corporation) with a surface-induced dissociation (SID) device incorporated between a truncated trap traveling wave ion guide and the ion mobility cell (39). The following instrument parameters were used spray voltage 0.9-1.3 kV; sampling cone, 20 V; extraction cone, 2 V; source temperature, room temperature; trap gas flow, 4 mL/min; trap bins, 45V. The data were processed with MassLynx™ v4.1 and DriftScope™ v2.1. For relative quantification, charge state series were extracted from DriftScope™, and smoothed spectra (mean; window 20; number of smooths 20) were integrated.
# Python scripts were written to generate theoretical models according Equation 1, and curve-fitting to native mass spectrometry data (FIGS. 1, 3, 5) according to Equation 2 by nonlinear least squares using curve fit from scipy.optimize. The free energy estimates for individual n, m, and l layers used in Equation 1 modeling were estimated by solving linear equations as follows: values for the free energy of folding for designs pRO-2 and variants were estimated from GdmCl denaturation experiments (FIG. 11); each of these designs have different numbers of n, m, and l layers, thus series of linear equations relating the number of each layer type to the total free energies of folding were solved to estimate dG values of the individual layers of each type.
# [3] = Fluorescence dequenching liposome leakage (liposome disruption) assay; format: biochemical; details: pH 5, 2.5 μM protein
# Method: Liposomes composed of DOPC (1,2-dioleoyl-sn-glycero-3-phosphocholine), DOPC with 25% cholesterol (molar ratio to DOPC), 3:1 DOPC:POPS (1-palmitoyl-2-oleoyl-sn-glycero-3-phospho-L-serine), and 3:1 DOPC:POPS with 25% cholesterol were prepared identically to a final concentration of 5 mM total lipid as previously described (32); lipids from Avanti Polar Lipids. Lipids solubilized in chloroform were dried under nitrogen gas and stored under vacuum for a minimum of 2 hours to remove residual solvent. The dried lipid film was the resuspended in Tris buffer (10 mM Tris, 150 mM NaCl, and 0.02% NaN3 pH 8.0) containing 25 mM Sulforhodamine B (SRB) fluorophore (Sigma) and subjected to 10 sequential freeze thaw cycles in liquid nitrogen. Liposomes were extruded 29 times through 100 nm pore size polycarbonate filters (Avanti Polar Lipids) and purified from free fluorophore using a PD-10 gel filtration column (GE Healthcare) into storage buffer (10 mM Tris, 150 mM NaCl, and 0.02% NaN3 pH 8.0). Liposome size and homogeneity was analyzed by dynamic light scattering (DLS) using a Dynapro Nanostar™ DLS (Wyatt Technologies). On average liposome diameter ranged from 120-130 nm with low polydispersity. Liposomes were stored at 4° C. and used within 5 days of preparation.
# Liposome disruption and content leakage was analyzed by fluorescence spectroscopy as previously described (32). […] The solution was rapidly acidified to the target pH by addition of a fixed volume of acidification buffer and incubated for 20 minutes. […] SRB fluorescence is independent of pH within the ranges used here. Finally. Triton X-100 (Sigma) was added to a final concentration of 1% to fully disrupt liposomes. Liposome disruption as indicated by content leakage and SRB dequenching was normalized using the formula [Fω−F(0)]/[F(Max)−F(0)] where F(0) is the average fluorescence intensity before acidification and F(Max) is the average fluorescence intensity ater addition of Triton X-100. All measurements were collected on a Varian Cary Eclipse spectrophotometer using an excitation/emission pairing of […] and 2.5 nm slit widths at 24° C. Any data plotted together was collected using the sum batch of liposomes.
# [4] = Cryo-electron microscopy and tomography of proteins with DOPC liposomes; details: gold-nanoparticle conjugates, pH 5 and pH 8
# Method: The conjugation reactions were performed immediately prior to use for electron microscopy imaging. […] The grids were prepared using a Vitrobot Mark IV (FEI) at 4 C and 100% humidity before being plunge-frozen in ethane cooled with liquid nitrogen.
# Electron micrographs were collected using a Tecnai G2 Spirit™ Transmission Electron Microscope (FEI) operated at 120 kV and equipped with a 4k×4k Gatan Ultrascan CCD camera at a nominal magnification of 26,000× or a Tecnai TF-20 Transmission Electron Microscope (FEI) operated at 200 kV equipped with a K2 Summit Direct Electron Detector (Gatan).
# Projection micrographs collected on the TF-20 were captured with the detector operating in counting mode. Specimens were imaged at 14,500 magnification, giving a pixel size of 0.254 nm, with a dose of ˜18e−/Å^2 across 75 200 ms movie frames. Data were collected in a semi-automated fashion using Leginon™ (49) and micrograph movie frames were aligned using MotionCor2™ (50). Leginon™ was used to collect tomography tilt series from −48 to +48 degrees bidirectionally in 3 degree increments with a total accumulated dose of ˜100 e−/Å^2. Reconstructions were processed using etomo in the IMOD™ software suite (31) with CTF parameters estimated from CTFFIND4™ (52). Reconstructed tomograms were visualized and measurements were made using ImageJ™ (53).
# U2-OS cells [5] = experiment: Colocalization of +36GFP fusions with lysosomal membrane (confocal microscopy); format: cell-based; details: 5 μM, 1 hr
# Method: U-2 OS (ATCC) cells were cultured in DMEM supplemented with 10% (v/v) inactivated FBS (Corning), 2 mM glutamine, penicillin (100 IU/mL), and streptomycin (100 μg/mL) at 37° C. and 5% CO2. The glass-bottom coverslip chambers were pre-coated with 500 μg/mL of Matrigel (Corning). Transfection of LAMP1-HaloTagTM was performed using Lonza Nucleofector system according to the manufacturer's specifications. After overnight of recovery and expression, the cells expressing LAMP1-HaloTagTM were labeled with 100 nM JF646-HTL for 30 minutes and washed three times with pre-warmed DMEM medium. The final concentration of 5 μM+36GFP fusion proteins was incubated with the LAMP1-HaloTagTM expressing U-2 OS cells on a pre-coated coverslip for 1 hr. Cells were fixed with 4% paraformaldehyde for 20 min at room temperature (RT) and quenched/rinsed with PBS supplemented with 30 mM glycine. Then, the coverslips were mounted on FluoroSaveTM (Millipore). For pH measurement of the lysosome, LysoSensorTM Yellow/Blue DND-160 was incubated at 1 mg/mL overnight and washed twice prior to imaging (54). The final concentration of 5 μM protein was incubated with the LAMP1-HaloTag expressing U2-OS cells that were loaded with 1 mg/mL LysoSensorTM Yellow/Blue DND-160 for 1 hr. In separate chambers, LysoSensorTM Yellow/Blue DND-160 loaded cells were incubated with bafilomycin A1 (1 μM) and chloroquine (50 μM) for 1 hr as a control. For fixed cell confocal microscopy, a customized Nikon TiE inverted scope outfitted with a Yokogawa spinning-disk scan head (#CSU-X1) along with an Andor iXonTM EM-CCD camera (DU-897) with […] exposure time was used to collect 3D images using an SR Apo TIRF 100×1.49 oil-immersion objective. […] coefficients were calculated in 3D with JF646 signal (LAMP-HaloTag) and +36GFP signal (corresponding proteins) using Imaris software with thresholding. Zeiss 880 equipped with AiryScanTM was also used to obtain high resolution images using a Plan-Apochromatic 63×/1.4 oil DIC objective.
# [6] = pH 7.4
# Excerpt: For low-pH experiments involving circular dichroism (CD), small-angle X-ray scattering (SAXS), and size exclusion chromatography (SEC), Na2PO4-Citrate buffer was used to ensure that a single buffer system could be used that was stable over the entire pH range to be tested. Buffers were made using established ratios of stock solutions of 0.2 M Na2PO4 and 0.1 M Citrate; final pH was adjusted using hydrochloric acid (HCl) or sodium hydroxide (NaOH) if needed.
# CD wavelength scans (260 to 195 nm) and temperature melts (25 to 95° C.) were measured using a JASCO™ J-1500 or an AVIV™ model 420 CD spectrometer. Temperature melts monitored absorption signal at 222 nm and were carried out at a heating rate of 4° C./min; protein samples were at 0.25 mg/mL in either phosphate buffered saline (PBS) pH 7.4 or Na2PO4-Citrate at indicated pH values (see Buffers systems for varying pH). Guanidinium chloride (GdmCl) titrations were all performed on an AVIV 420 spectrometer with an automated titration apparatus using either PBS pH 7.4 or Na2PO4-Citrate buffers at indicated pH at room temperature, monitoring helical signal at 222 nm, using a protein concentration of 0.025 mg/mL in a 1 cm cuvette with stir bar. Each titration consisted of at least 30 evenly distributed concentration points with one minute mixing time for each step. Titrant solution consisted of the same concentration of protein in the same buffer system plus GdmCl; GdmCl concentration of starting solutions was determined by reactive index.
# [7] = molecular target: the molecule itself; experiment: native mass spectrometry at 5 uM trimer
# Method: Samples were buffer exchanged twice into 200 mM ammonium acetate (NH₄Ac; MilliporeSigma) using Micro Bio-Spin P-6 columns (Bio-Rad). […]
# [8] = molecular target: the molecule itself; experiment: native mass spectrometry at the indicated pH
# Method: Samples were buffer exchanged twice into 200 mM ammonium acetate (NH₄Ac; MilliporeSigma) using Micro Bio-Spin P-6 columns (Bio-Rad). Protein concentrations were determined by UV absorbance using a Nanodrop 2000c spectrophotometer (Thermo Fisher Scientific) and diluted to make up a 10-fold stock solution (50 μM and 16.7 μM monomer and trimer concentration, respectively). 1 μL of this solution was mixed with 9 μL 200 mM NH₄Ac/50 mM triethylammonium acetate (TEAA; MilliporeSigma), adjusted with acetic acid (Fisher Scientific) to obtain the desired final pH and incubated on ice for 30 min.
# [9] = molecular target: T1, pRO-4 Chain B (heterodimer pRO-4), …; experiment: SEC and native mass spectrometry; heterodimer
# [10] = Size-exclusion chromatography (SEC); format: physicochemical; details: high concentration
# Method: Cells were lysed by microfluidization in the presence of 1 mM PMSF. Lysates were clarified by centrifugation at 24,000 ref at 4° C. for at least 30 minutes. Proteins were purified by Immobilized metal affinity chromatography (IMAC): supernatant was applied to Ni-NTA (Qiagen) columns pre-equilibrated in lysis buffer. The column was washed twice with 15 column volumes (CV) of wash buffer (25 mM Tris pH 8.0 at room temperature, 300 mM NaCl, 40 mM Imidazole), followed by 3-5 CV of high-salt wash buffer (25 mM Tris pH 8.0 at room temperature, 1 M NaCl, 40 mM Imidazole) then an additional 15 CV of wash buffer. Protein was eluted with 250 mM Imidazole, and buffer-exchanged into 25 mM Tris pH 8.0 and 150 mM NaCl without imidazole for cleavage of the N-terminal hexahistidine tag by purified hexahistidine-tagged TEV protease (with the exception of design pRO-1, which was cleaved using restriction grade thrombin (EMD Millipore 69671-3) at room temperature for 4 hours or overnight, using a 1:3000 dilution of enzyme into sample solution). A second Ni-NTA step was used to remove hexahistidine tag, uncleaved sample and the hexahistidine-tagged TEV protease, and the cleaved proteins were then […], 150 mM NaCl, and 2% glycerol.
molecule,measurement,setting,value
CCN(CC)CCCC(C)Nc1ccnc2cc(Cl)ccc12 (stereo not shown) [Chloroquine],effect on lysosomal pH (known drugs),U2-OS cells [1],known to neutralize lysosomal pH
CO/C1=C\C(C)=C\[C@@H](C)[C@@H](O)[C@@H](C)C/C(C)=C/C=C/[C@H](OC)[C@@H]([C@@H](C)[C@@H](O)[C@H](C)[C@@]2(O)C[C@@H](O)[C@H](C)[C@@H](C(C)C)O2)OC1=O [Bafilomycin A],effect on lysosomal pH (known drugs),U2-OS cells [1],known to neutralize lysosomal pH
"pRO-2-noHis subunit (homotrimer lacking histidine networks) (designed binder, forms a homotrimer; Tag-free form) GSEYEIRKALEELKASTAELKRSTASLRASTEELKKNPSEDALVENNRLIVENNAIIVENNRIIAAVLELIVRAIK",oligomeric state at pH 7 / neutral pH,[2],assembled to the intended trimeric state
same,pH response of oligomeric state (pH-induced disassembly),[2]; pH ~7 to ~3,remained trimeric at low pH; also recorded: no significant pH response
same,liposome disruption activity at pH 5,[3],no detectable liposome activity
same,interaction with liposomes by cryo-EM,[4],no interactions with liposomes at either pH; also recorded: does not interact with liposomes at either pH
same,colocalization with lysosomal membranes,U2-OS cells [5],not observed in lysosomes
same,folding stability by GdmCl denaturation,[6],unaffected by change in pH
same,binding result,[7],binds
"pRO-2 I56V subunit (designed binder, forms a homotrimer; Tag-free form, and the entry already carries I56V) GSEYEIRKALEELKAATAELKRATASLRAITEELKKNPSEDALVEHNRAIVEHNAIVVEHNRIIAAVLELIVRAIK",binding result,[8],binds
pRO-4 Chain A (heterodimer pRO-4) (designed binder) MDEEDHLKKLKTHLEKLERHLKLLEDHAKKLEDILKERPEDSAVKESIDELRRSIELVRESIEIFRQSVEEEE,binding result,[9],binds
"pRO-1: designed homotrimer, SEQ ID NO: 13-14 (protein) chain 1: MGSSHHHHHHSSGLVPRGSHMGTLKEVLERLEEVLRRHREVAREHQRWAREHEQWVRDDPNSAKWIAESTRWILETTDAISRTADVLAEAIRVLAESD chain 2: GSHMGTLKEVLERLEEVLRRHREVAREHQRWAREHEQWVRDDPNSAKWIAESTRWILETTDAISRTADVLAEAIRVLAESD",oligomeric state at pH 7 / neutral pH,[2],primarily dimeric
same,oligomeric state by SEC,[10],trimeric at high concentration
